We go through 13 molecules from US20260209316A1 (US Dept. of Health and Human Services, published 2026).

Assay [1] deals with T1, SUDV GP on pseudotyped lentiviral vector (Sudan virus (SUDV), UniProt Q7T9D9 33-676).
T1 sequence: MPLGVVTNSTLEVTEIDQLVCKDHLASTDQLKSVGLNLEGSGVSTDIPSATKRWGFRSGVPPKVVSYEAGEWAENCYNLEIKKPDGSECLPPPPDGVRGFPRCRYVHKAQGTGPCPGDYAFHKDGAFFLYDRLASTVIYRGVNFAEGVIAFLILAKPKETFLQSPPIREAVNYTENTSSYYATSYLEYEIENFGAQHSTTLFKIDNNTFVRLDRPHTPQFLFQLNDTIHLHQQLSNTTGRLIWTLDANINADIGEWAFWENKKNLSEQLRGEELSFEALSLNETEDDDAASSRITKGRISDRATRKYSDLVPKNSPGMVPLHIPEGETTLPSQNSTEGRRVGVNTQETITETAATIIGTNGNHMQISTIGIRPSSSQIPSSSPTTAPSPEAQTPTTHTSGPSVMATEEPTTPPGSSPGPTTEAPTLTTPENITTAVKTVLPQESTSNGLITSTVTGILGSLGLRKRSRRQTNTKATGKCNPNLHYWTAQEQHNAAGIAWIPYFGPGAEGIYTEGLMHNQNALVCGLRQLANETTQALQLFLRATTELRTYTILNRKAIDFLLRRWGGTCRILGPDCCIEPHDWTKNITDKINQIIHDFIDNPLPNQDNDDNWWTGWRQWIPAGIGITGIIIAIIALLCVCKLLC
Briefly: cell-based or functional assay.

The target of assay [2] is T2, full-length Sudan GP (GPFL) (Sudan virus (SUDV), UniProt Q7T9D9 33-650).
T2 construct: also called Sudan GPFL; GP(S)FL
T2 sequence: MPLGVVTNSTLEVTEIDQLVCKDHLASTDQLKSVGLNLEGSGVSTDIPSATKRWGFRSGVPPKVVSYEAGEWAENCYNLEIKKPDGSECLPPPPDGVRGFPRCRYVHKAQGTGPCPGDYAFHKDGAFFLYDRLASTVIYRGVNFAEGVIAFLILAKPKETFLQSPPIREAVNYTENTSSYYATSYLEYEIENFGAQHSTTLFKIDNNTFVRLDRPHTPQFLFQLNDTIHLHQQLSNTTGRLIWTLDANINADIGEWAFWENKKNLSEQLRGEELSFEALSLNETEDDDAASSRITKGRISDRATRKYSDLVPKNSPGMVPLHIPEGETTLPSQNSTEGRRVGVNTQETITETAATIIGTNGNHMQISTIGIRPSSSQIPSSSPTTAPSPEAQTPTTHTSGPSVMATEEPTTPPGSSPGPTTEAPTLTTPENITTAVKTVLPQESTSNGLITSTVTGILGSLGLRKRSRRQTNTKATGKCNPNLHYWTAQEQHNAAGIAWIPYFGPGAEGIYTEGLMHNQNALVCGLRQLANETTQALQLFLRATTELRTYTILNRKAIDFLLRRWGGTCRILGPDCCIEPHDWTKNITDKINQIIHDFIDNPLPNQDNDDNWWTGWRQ
Briefly: ELISA on coated GP. Background: In an ELISA, binding on a coated surface is turned into a signal by an enzyme label.

Assay [3] addresses T2, full-length Sudan GP (GPFL). Briefly: BLI, Fab, pH 7.4. (In BLI a coated tip is dipped into the sample, and binding shifts an interference pattern.)
Assay [4] shares this target. Briefly: BLI, Fab, pH 5.3.

B1: antibody 528S (antibody, V domains shown)
VH: EVQLAESGGGVVQPGRSLRLSCAASGFTFNSYGMHWVRQAPGKGLEWVAVIWDDGSKKYYADSVKGRFTISRDNSKNTLFLQMNSLRAEDTAVYYCARETIMFTFGEVIVSSRDNYYMDVWGKGTTVTVSS
VL: EIVLTQSPATLSLSPGERATLSCRASQSVSNYLAWYQQKPGQAPRLLIYDASTRAIGIPARFSGVGSGTDFTLTISSLEPEDFAVYYCQQRSNWPPLTFGGGTKVEIK
In general, EC50 refers to the concentration giving half of the maximal effect. Higher therefore signals lower potency in that assay. As to B1, the “IC50, microneutralization of GP-pseudotyped lentiviral vector on HEK293 cells” value (“IC50, microneutralization” below) in assay [1] turned out to be 0.58 µg/mL. The midpoint of the response in assay [2], the EC50, lay at 0.05 µg/mL.

B2: antibody 315S (antibody, V domains shown)
VH: EVQLVESGGGVVQPGRSLRLSCAASGFTFKTYTMHWVRQAPGKGLEWVAVITDDGVNKKYADSVKGRFTISRDNSKNTLYLQMNSLRLEDTAVYYCARSVVVLAAYPLDYWGQGTMVTVSS
VL: DIQMTQSPSSLSASVGDRVTITCRASQTISTYLHWYQQRPGKAPKLLIYAASSLQSGVPSRVSGSGSGTDFTLTITSLQPEDFATYYCLQTYSLPLTFGGGTNVEIK
Turning to B2, the “IC50, microneutralization” value in assay [1] turned out to be 0.15 µg/mL. In assay [2], this molecule returned an EC50 of 0.01 µg/mL.

B3: antibody 338S (antibody, V domains shown)
VH: EVQLVESGGGVVQPGRSLRLSCAASGFTFSQYGMHWVRQAPGKGLECVAVIWFDGSKKYYGDSVKGRFTISRDNSKNTLYLQMNSLRAEDTAVYFCARESLYYYDSGGHYYERGRIDYWGQGTLVTVSS
VL: DIQMTQSPSSLSASVGDRVTITCRASQDISNFLAWFQQKPGKAPKSLIYAASSLLSGVPSKFSGSGSGTDFTLTISSLQPEDFATYYCQQYNSYPPTFGQGTKLEIK
Regarding B3, the “IC50, microneutralization” value in assay [1] turned out to be 0.6 µg/mL. This molecule showed an EC50 in assay [2] of 0.03 µg/mL.

B4: antibody 335S (antibody, V domains shown)
VH: EVQLVESGGGVVQPGRSLRLSCAASGFSFSNYAMHWVRQAPGKGLEWVAVTWYDGSSKYHADSVKGRFTISRDNSKNTLYLQMNSLRAEDTAVYYCARWGMGIVASPGNVLNYYYFMDVWGQGTTVIVSS
VL: SYELTQPPSVSVSPGQTARITCSGNPLPKKHTYWYQQKPGQAPVLMIYKDSERPSRIPERFSGSSSGTTVTLTISGVQAEDEADYYCQSADSTGIVVFGGGTKLTVL
For the molecule B4, the “IC50, microneutralization” value in assay [1] came to 0.63 µg/mL. For the same molecule, the EC50 in assay [2] was 0.02 µg/mL.

B5: Fab generated from 354S (Fab, V domains shown)
VH: QVQLVQSGAEVKKPGASVKVSCKASGYSFASYYIHWVRQAPGQGLEWMGIINPSGGTTSYAQKFQGRVTMTRDTSTSTVYMELSSLGSEDTAVYYCARIVDRVTIYLNGVDNYWGQGTLVTVSS
VL: EIVMTQSPATLSVSPGERVTLSCRASQSVSSNLAWFQQTPGQAPRLLIYGASTRASGVPARFSGSGSGTEFTLTISSLQSEDFAVYYCLQYNNWPPGWKYGFGQGTKLEIK
notes: also called 354S Fab
Usually Kd stands for the constant that tells how readily two partners part at equilibrium. A lower Kd goes with a tighter complex. What is called koff is the rate constant with which the complex falls apart. The low end stands for slow dissociation, the high end for fast dissociation. Usually kon stands for a measure of how fast the partners come together. On to B5, for which, in assay [3], the affinity, expressed as Kd, was 8.89 nM; the koff was found to be 0.00076 s⁻¹; the kon is 85600 M⁻¹ s⁻¹. In assay [4], this molecule yielded an equilibrium dissociation constant (Kd) of 6.12 nM, a dissociation rate constant (koff) of 0.000445 s⁻¹ and a kon of 72700 M⁻¹ s⁻¹.

B6: Fab generated from 503S (Fab, V domains shown)
VH: QVQLVQSGAEVKKPGASVRVSCKASGYTFTSYYMHWVRQAPGQGLEWMGQINPSGGTTRYERKFQGRITVTRDTSTSTVYLELSSLRSEDTASYFCACLRDKVTYYDLWSGVDSVWGQGTLVTVSS
VL: DIQMTQSPSSLSASVGDRVTITCRASQDISTWLAWYQQKPEKAPKSLIYAASTLETGVPSRFSGSGSGTDFTLTISSLQPEDFATYYCEQYNGFPRTFGQGTKLDIK
notes: also called 503S Fab
Consider B6, for which, in assay [3], the dissociation constant (Kd) is 19.5 nM, the dissociation rate constant (koff) amounted to 0.00111 s⁻¹ and the on-rate constant (kon) stood at 56800 M⁻¹ s⁻¹. For the same molecule, in assay [4], the dissociation constant (Kd) was determined as 6.58 nM, the off-rate (koff) worked out at 0.000373 s⁻¹ and the kon turned out to be 56700 M⁻¹ s⁻¹.

B7: antibody 203S (antibody, V domains shown)
VH: QVQLVQSGAEVKKPGSSVKVSCKASGGTFSSYAISWVRQAPGQGLEWLGRILPALGLANYAQKYQDRVKITADKSTSTAYMELSRLGSEDTAVYYCARDRWVGAARRGQYFDYWGQGTQVTVSS
VL: DIQMTQSPATLSASVGDRVTITCRASQSIGTWLAWYQQKPGKAPKLLIYDASSLESGVPPRFSGSGSETEFTLTISSLQPDDFATYYCHQYKSYSYTFGQGTKLEIK
Turning to B7, the “IC50, microneutralization” value in assay [1] amounted to 0.04 µg/mL. This molecule registered a concentration for a half-maximal effect (EC50) in assay [2] of 0.5 µg/mL.

B8: Fab generated from 541S (Fab, V domains shown)
VH: QVQLVQSGAEVKKPGASVKVSCKASGYTFTNYAITWVRQAPGQGLEWMGWISAFNGQINYAQKFQGRVAMTTDTSTSTAYMELRSLRSDDTAVYYCARAPPMWFSGAKFDYWGQGTLVTVSS
VL: QSVLTQPPSVSGTPGQRVTISCSGSSSNIGSNTVNWYQQLPGTAPKLLIYSNDQRPSGVPDRFSGSKSGTSASLAISGLRSEDEADYYCAAWDETLRRVFGGGTRLTVL
notes: also called 541S Fab
In assay [3], B8 displayed an equilibrium dissociation constant (Kd) of 39.5 nM, a koff of 0.000482 s⁻¹ and a kon of 12200 M⁻¹ s⁻¹. Further, in assay [4], the Kd amounted to 44.3 nM, the dissociation rate constant (koff) amounted to 0.000322 s⁻¹ and the kon came out at 7260 M⁻¹ s⁻¹.

B9: Fab generated from 241S (Fab, V domains shown)
VH: QVQLVQSGSELKKPGASVKVSCKASGYTFTSYTVNWVRQAPGQGLEWMGWINTNTGNPTYAQGFTGRFVFSSDTSVSTAYLQISDLKAEDTAMYYCARHVAYDLWSGHTVTFDHWGQGTLVTVSS
VL: QSALTQPPSASGSPGQSVTISCTGTSSDVGAYNYVSWYQQHPGKAPKLIIYEVTKRPSGVPDRFSGSKSGNTASLTVSGLQAEDEADYYCSSKAGGKTYVFGTGTKVTVL
In assay [3], B9 had an equilibrium dissociation constant (Kd) of 3.47 nM, an off-rate constant (koff) of 0.000439 s⁻¹ and a kon of 127000 M⁻¹ s⁻¹. Further, in assay [4], the affinity, expressed as Kd, was 6.36 nM; the koff was determined as 0.000433 s⁻¹; the on-rate constant (kon) was 68200 M⁻¹ s⁻¹.

B10: antibody 285S (antibody, V domains shown)
VH: QVQLVQSGAEVKKPGSSVKVSCKASGGTFSTYAITWVRQAPGQGLEWMGRIIPILRVANYAQKFQGRVTITADSSTSTAYMELSSLRSEDTAVYYCANLLAYCGGDCRSDYWGQGTLVTVSS
VL: EIVLTQSPGTLSLSPGERATLSCRASQSVKNSYLAWYHQKPGQAPRLLIYGASSRATGIPDRFSGSGSGTDFTLTISRLEPEDFAVYYCQQYGSSLWTFGQGTKVDVK
In the case of B10, the “IC50, microneutralization” value in assay [1] was 0.64 µg/mL. In addition, the response in assay [2] was half-maximal at 0.02 µg/mL (EC50).

B11: Fab generated from 233S (Fab, V domains shown)
VH: EVQLVESGGGLGQPGGSLRLSCAASGFKFKIFGMNWVRQAPGKGLEWVSYISSRSSIIYYADSVKGRFTISRDDATNSLFLQMNSLRDEDTAMYYCVRDYNLIDFVWGSLFDYWGQGILVTVSS
VL: AIRMTQSPSSLSASTGDSVTITCRASQNIASYLAWYQQIPGKAPKLLIYVASTLQSGVPSRFSGSGSGTDFTLTISSLQSEDFATYYCQQYYRYPPTFGQGTKVEIK
Regarding B11, in assay [3], the Kd stood at 7.53 nM, the dissociation rate constant (koff) amounted to 0.000543 s⁻¹ and the kon was found to be 72100 M⁻¹ s⁻¹. In assay [4], this molecule showed a Kd of 7.56 nM, an off-rate (koff) of 0.000358 s⁻¹ and an on-rate (kon) of 47300 M⁻¹ s⁻¹.

B12: Fab generated from 294S (Fab, V domains shown)
VH: QVQLQESGPGLVKPSQTLSLTCTVSGGSISSGGYHWSWIRQHPGKGLEWIGNIYYNGRTYYNPSLKSRVTISVDTSENEFSLKLSSVTAADTAVYYCARDRRRPRIGHDYGMDVWGQGTKVIVSS
VL: DIQMTQSPSSLSASVGDRVTISCRASQSISNFLNWYQQKPGQAPKLLIYTASNLQSGVPSRFSGSGSGTDFTLTISSLQPEDFATYYCQQIYNTGMYSFGQGTKLEIK
notes: also called 294S Fab
Take B12: in assay [3], the dissociation constant Kd is 4.3 nM, the koff turned out to be 0.00135 s⁻¹ and the association rate constant (kon) worked out at 314000 M⁻¹ s⁻¹. In assay [4], this molecule gave an equilibrium dissociation constant (Kd) of 2.18 nM, a koff of 0.000377 s⁻¹ and an on-rate constant (kon) of 173000 M⁻¹ s⁻¹.

B13: antibody 377S (antibody, V domains shown)
VH: QVQLVQSGAEVKKPGSSVKVSCKASGGTFSNYAINWVRQAPGQGLEWMGRTIPFLGLTNYAENFQARVTITADKSTGTSYMQLSSLRSEDTAVYFCAKAATSGWSPFDNWGQGTLVTVSS
VL: EIVLTQSPGTLSLSPGERATLSCRASQSISSSYFGWYQQKPGQAPRLLIYGASRRAAGIPDRFSCSGSGTDFTLTISRLEPEDFGVYYCQQYGSSPTFGQGTKVEIK
Consider B13, for which the “IC50, microneutralization” value in assay [1] came out at 0.56 µg/mL. Moreover, it took 0.14 µg/mL to reach a half-maximal effect in assay [2] (EC50).
